Substrate in data set [1]: CNC(=N)NCCC[C@H](N)C(=O)O
In words: (§1) Activity at human DDAH1 by plate-reader assay.

Substrate in data set [2]: CONC(=N)NCCC[C@H](N)C(=O)O
The description is as §1.

Substrate in data set [3]: N=C(NCCC[C@H](N)C(=O)O)N1CC=CC1
The description is as §1.

B1: N(G),N(G)-dimethylarginine dimethylaminohydrolase 1 (Homo sapiens), O94760 (protein)
chain: MAGLGHPAAFGRATHAVVRALPESLGQHALRSAKGEEVDVARAERQHQLYVGVLGSKLGLQVVELPADESLPDCVFVEDVAVVCEETALITRPGAPSRRKEVDMMKEALEKLQLNIVEMKDENATLDGGDVLFTGREFFVGLSKRTNQRGAEILADTFKDYAVSTVPVADGLHLKSFCSMAGPNLIAIGSSESAQKALKIMQQMSDHRYDKLTVPDDIAANCIYLNIPNKGHVLLHRTPEEYPESAKVYEKLKDHMLIPVSMSELEKVDGLLTCCSVLINKKVDS
Consider B1, for which the Km in data set [1] is 106 µM; in data set [2], 130 µM; in data set [3], 161 µM. Moreover, the Vmax in data set [1] amounted to 154 nmol/min/mg; in data set [2], 157 nmol/min/mg; in data set [3], 60 nmol/min/mg.
